One molecule from patent publication US20220332804A1 (CSL INNOVATION, published 2022) can be followed below.

Experiment in all cases: SPR, KD relative to WT C2;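 note: biacore SPR at 37 °C, anti-C2 mAbs captured on anti-human IgG chips with alanine or serine point mutants of C2 as analyte, KD from 1:1 fit compared with wild-type C2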
One test concerns the target T1, human C2 I438A (human, UniProt P06681 21-752).
T1 sequence: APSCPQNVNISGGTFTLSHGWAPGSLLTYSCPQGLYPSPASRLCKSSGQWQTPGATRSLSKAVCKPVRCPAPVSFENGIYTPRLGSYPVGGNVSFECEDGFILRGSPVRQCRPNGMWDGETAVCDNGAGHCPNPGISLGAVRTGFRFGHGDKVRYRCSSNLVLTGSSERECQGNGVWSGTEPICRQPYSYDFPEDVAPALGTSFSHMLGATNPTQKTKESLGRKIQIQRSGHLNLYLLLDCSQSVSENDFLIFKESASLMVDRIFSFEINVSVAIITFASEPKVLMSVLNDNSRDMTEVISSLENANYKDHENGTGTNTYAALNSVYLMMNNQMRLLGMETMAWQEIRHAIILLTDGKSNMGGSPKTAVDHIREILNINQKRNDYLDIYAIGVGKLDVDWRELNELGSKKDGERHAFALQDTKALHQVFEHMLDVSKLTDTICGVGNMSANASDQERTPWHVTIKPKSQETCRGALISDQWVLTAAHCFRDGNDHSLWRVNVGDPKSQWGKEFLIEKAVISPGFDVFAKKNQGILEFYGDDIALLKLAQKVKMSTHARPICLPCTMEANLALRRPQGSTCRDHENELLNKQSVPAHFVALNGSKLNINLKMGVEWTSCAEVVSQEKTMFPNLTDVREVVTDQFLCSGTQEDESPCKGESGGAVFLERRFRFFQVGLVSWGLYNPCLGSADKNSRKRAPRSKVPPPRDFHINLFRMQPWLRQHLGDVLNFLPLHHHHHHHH

The target of a further test is T2, human C2 L453A (human, UniProt P06681 21-752).
T2 sequence: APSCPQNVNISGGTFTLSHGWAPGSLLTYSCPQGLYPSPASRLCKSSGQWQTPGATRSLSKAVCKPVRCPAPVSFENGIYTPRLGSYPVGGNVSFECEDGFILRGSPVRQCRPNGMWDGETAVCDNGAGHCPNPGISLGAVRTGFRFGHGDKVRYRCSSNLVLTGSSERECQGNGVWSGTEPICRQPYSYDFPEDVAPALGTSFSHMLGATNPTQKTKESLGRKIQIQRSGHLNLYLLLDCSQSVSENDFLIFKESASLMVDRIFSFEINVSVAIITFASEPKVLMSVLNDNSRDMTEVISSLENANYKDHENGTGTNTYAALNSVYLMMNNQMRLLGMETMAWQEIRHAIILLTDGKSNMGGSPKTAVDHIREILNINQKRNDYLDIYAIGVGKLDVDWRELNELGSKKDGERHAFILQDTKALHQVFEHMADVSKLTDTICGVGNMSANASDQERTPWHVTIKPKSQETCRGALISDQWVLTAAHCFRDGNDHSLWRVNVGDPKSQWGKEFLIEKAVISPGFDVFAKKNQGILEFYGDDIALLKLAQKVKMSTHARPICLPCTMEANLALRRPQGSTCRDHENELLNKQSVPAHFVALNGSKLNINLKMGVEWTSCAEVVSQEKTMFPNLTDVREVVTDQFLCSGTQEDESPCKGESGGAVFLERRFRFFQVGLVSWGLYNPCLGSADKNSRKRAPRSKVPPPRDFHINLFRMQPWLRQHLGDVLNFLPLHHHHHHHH

The next test concerns the target T3, human C2 N268A (human, UniProt P06681 21-752).
T3 sequence: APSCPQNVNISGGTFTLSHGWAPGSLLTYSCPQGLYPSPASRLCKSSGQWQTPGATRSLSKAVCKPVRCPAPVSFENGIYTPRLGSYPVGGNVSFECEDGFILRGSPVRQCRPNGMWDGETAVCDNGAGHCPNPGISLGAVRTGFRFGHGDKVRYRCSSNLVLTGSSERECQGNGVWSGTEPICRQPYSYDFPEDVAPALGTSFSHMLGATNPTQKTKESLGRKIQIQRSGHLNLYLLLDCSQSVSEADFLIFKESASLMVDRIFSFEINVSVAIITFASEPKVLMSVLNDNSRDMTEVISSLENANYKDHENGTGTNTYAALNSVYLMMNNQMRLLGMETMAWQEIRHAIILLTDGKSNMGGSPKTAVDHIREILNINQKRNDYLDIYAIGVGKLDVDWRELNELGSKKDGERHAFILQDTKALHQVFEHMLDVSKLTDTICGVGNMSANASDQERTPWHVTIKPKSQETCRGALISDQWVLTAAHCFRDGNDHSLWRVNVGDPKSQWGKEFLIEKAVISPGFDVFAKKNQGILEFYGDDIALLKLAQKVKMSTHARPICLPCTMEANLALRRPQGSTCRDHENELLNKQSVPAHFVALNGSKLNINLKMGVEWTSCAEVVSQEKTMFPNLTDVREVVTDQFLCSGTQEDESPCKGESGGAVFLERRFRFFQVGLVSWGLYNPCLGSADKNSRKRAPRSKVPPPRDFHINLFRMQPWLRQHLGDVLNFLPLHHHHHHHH

The target in a further test is T4, human C2 A472S (human, UniProt P06681 21-752).
T4 sequence: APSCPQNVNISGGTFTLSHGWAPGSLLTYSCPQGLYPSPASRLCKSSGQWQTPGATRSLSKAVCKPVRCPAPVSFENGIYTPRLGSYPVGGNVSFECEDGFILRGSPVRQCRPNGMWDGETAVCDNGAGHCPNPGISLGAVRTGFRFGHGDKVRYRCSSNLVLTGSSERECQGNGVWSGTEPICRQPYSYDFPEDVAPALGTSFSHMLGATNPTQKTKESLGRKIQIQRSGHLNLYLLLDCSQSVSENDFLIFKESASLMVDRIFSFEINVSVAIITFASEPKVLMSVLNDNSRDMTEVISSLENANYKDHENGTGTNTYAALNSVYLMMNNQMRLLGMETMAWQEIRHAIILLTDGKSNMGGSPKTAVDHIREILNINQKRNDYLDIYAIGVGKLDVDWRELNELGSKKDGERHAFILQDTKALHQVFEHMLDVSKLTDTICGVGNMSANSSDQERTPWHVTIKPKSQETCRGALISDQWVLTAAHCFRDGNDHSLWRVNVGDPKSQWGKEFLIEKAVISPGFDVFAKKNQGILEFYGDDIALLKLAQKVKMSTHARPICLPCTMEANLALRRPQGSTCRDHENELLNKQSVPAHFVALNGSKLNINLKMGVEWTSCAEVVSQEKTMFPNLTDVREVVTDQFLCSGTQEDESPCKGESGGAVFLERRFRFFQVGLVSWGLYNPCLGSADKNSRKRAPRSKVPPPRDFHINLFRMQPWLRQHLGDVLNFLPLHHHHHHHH

B1: RF16-242 (antibody, human IgG4 S228P, lambda, V domains shown)
VH: EVQLLQSGAEVKKPGESLKISCKGSGYSFTSYWIGWVRQMPGKGLEWMGIIYPGDSDTRYSPSFQGQVTISADKSISTAYLQWSSLKASDTAMYYCARRGHYGDYFDYWGQGTLVTVSS
VL: SYELTQPPSVSVSPGQTARITCSGDALPKKYAYWYHQKSGQAPVLVIYEDRRRPSEIPERFSGSSSGTMATLTITGAQVEDEGVYFCYSRDRAGNQRVFGGGTQLTVLG
notes: pH-dependent anti-C2 antibody from a phage display library
With B1, the Fold diff with human C2 I438A was found to be 1 fold; in the test with human C2 L453A it was 1 fold; with human C2 N268A, 2 fold; in the test with human C2 A472S, 7 fold.
